12 molecules from patent US8546537B2, “Streptavidin having low immunogenicity and use thereof” (The University of Tokyo, priority 2009, dated 2013) can be followed below.

Series [1] in a line: Thermal shift assay of streptavidin proteins. It is filed as physicochemical. Conditions: at 100° C., 10 μM protein, 1×PBS, guanidine-HCl 0 to 2 M, SYPRO Orange. How it is done: The following 5 types of proteins, a native streptavidin, mcSA040, mcSA072, mcSA314 and mcSA414, which had been purified in accordance with Example 2, were subjected to a thermal shift assay (Vedadi, (2006), Proc Natl Sci USA., 103(43), 15835-15840). Each sample was prepared in a real-time PCR tube (PCR Tube Strip, Flat Cap Strip; manufactured by BIO-RAD), so that the samples could have the following final concentrations. That is, SYPRO Orange was 5000-fold diluted, the concentration of each protein was set at 10 μM, and the buffer was set at 1×PBS. Moreover, for the purpose of accelerating the heat denaturation of each protein, the concentration of a guanidine-HCl solution was set at 0 M, 0.5 M, 1M and 2 M as a final concentration. The reaction volume was set at 20 μl. The CFX96 Real-Time PCR detection system (manufactured by BIO-RAD) was used as a measurement device. As a program mode of the CFX96 Real-Time PCR detection system, a program mode for use in FRET detection was used. The reaction and detection were carried out by a program for increasing the temperature by 0.5° C. every 10 seconds.

The nature of series [2]: Kinetics analysis of interaction between streptavidin protein and biotin using Biacore biosensor. Format: binding. Conditions: for Association rate constant ka / Dissociation rate constant kd: Biacore 3000, biotinylated mouse antibody captured, 1:1 binding model; for Kd: Biacore 3000, obtained from kd/ka, read-out: Dissociation constant Kd. Here is the method:
As a ligand (a substance to be attached to a sensor chip) used for a Biacore (registered trademark) biosensor, an anti-mouse IgG antibody (manufactured by GE Healthcare Biosciences) was used. On the other hand, as analytes (substances to be supplied to the flow channel system), a biotinylated mouse antibody and various types of mutant streptavidins were prepared, and intermolecular interaction was then analyzed using Biacore (registered trademark) 3000 (a biosensor based on the principle of surface plasmon resonance; manufactured by GE Healthcare Biosciences). The anti-mouse IgG antibody was immobilized on all of the flow cells of a CM5 sensor chip according to an amine coupling method. The amount of the antibody immobilized on each flow cell was 8000 RU. Subsequently, as references, non-biotinylated mouse antibodies were captured onto Flow Cells 1 and 3, and biotinylated mouse antibodies were captured onto Flow Cells 2 and 4. Various types of streptavidins were loaded in a running buffer (HBS-EP; manufactured by GE Healthcare Biosciences) on Flow Cells 1 and 2, or 3 and 4, at a flow rate of 20 μl/min for 2 minutes. Thereafter, dissociation of each sample was monitored for 7 minutes. Thereafter, a reproduction operation was carried out using a 10 mM glycine-HCl buffer (pH 1.7) (manufactured by GE Healthcare Biosciences), and repeat measurement was then carried out. Using the analysis software BIAevaluation ver. 4.1, a reaction kinetics analysis was performed on a 1:1 binding model based on the obtained sensorgram, so as to calculate an association rate constant (ka) and a dissociation rate constant (kd). A dissociation constant (Kd) was obtained from kd/ka.
The results of the kinetics analysis of the intermolecular interaction of a recombinant streptavidin and a biotin, which was carried out using Biacore (registered trademark) 3000 (a biosensor based on the principle of surface plasmon resonance; manufactured by GE Healthcare Biosciences), are as shown in Table 2.
On the technique in general: In SPR one partner is held on a chip, and binding of the other changes the refractive index at the surface.

B1: mcSA040: mutant core streptavidin with Y83S, R84K, E116Q (protein)
core streptavidin subunit: AEAGITGTWYNQLGSTFIVTAGADGALTGTYESAVGNAESRYVLTGRYDSAPATDGSGTALGWTVAWKNNSKNAHSATTWSGQYVGGAEARINTQWLLTSGTTQANAWKSTLVGHDTFTKVKPSAAS
As for B1, the “thermal stability compared with native streptavidin” value in series [1] is listed as “thermal stability equivalent to that of the native streptavidin”.

B2: mcSA324: mutant core streptavidin with Y22T, Y83S, R84K, E101D, R103K, E116N (protein)
core streptavidin subunit: AEAGITGTWTNQLGSTFIVTAGADGALTGTYESAVGNAESRYVLTGRYDSAPATDGSGTALGWTVAWKNNSKNAHSATTWSGQYVGGADAKINTQWLLTSGTTNANAWKSTLVGHDTFTKVKPSAAS
As usually defined, the Kd is the concentration at which binding is half-saturated. As to B2, in series [2], the “Association rate constant ka” value is recorded as 3.26 × 10^5 M^−1 S^−1, the “Dissociation rate constant kd” value is given as 7.18 × 10^−5 S^−1 and the Kd turned out to be 0.22 nM.

B3: mcSA214: mutant core streptavidin with Y22S, Y83A, R84K, E101D, R103K, E116Q (protein)
core streptavidin subunit: AEAGITGTWSNQLGSTFIVTAGADGALTGTYESAVGNAESRYVLTGRYDSAPATDGSGTALGWTVAWKNNAKNAHSATTWSGQYVGGADAKINTQWLLTSGTTQANAWKSTLVGHDTFTKVKPSAAS
Consider B3, for which, in series [2], the “Association rate constant ka” value was 2.64 × 10^5 M^−1 S^−1, the “Dissociation rate constant kd” value is recorded as 1.21 × 10^−4 S^−1 and the Kd is 0.459 nM.

B4: mcSA414: mutant core streptavidin with Y22S, Y83S, R84K, E101D, R103K, E116Q (protein)
core streptavidin subunit: AEAGITGTWSNQLGSTFIVTAGADGALTGTYESAVGNAESRYVLTGRYDSAPATDGSGTALGWTVAWKNNSKNAHSATTWSGQYVGGADAKINTQWLLTSGTTQANAWKSTLVGHDTFTKVKPSAAS
As for B4, in series [2], the “Association rate constant ka” value is reported as 2.31 × 10^5 M^−1 S^−1, the “Dissociation rate constant kd” value was 5.18 × 10^−5 S^−1 and the Kd stood at 0.243 nM. Also, the “thermal stability compared with native streptavidin” value in series [1] is “thermal stability equivalent to that of the native streptavidin”.

B5: mcSA314: mutant core streptavidin with Y22S, Y83S, R84K, E101D, R103K, E116N (protein)
core streptavidin subunit: AEAGITGTWSNQLGSTFIVTAGADGALTGTYESAVGNAESRYVLTGRYDSAPATDGSGTALGWTVAWKNNSKNAHSATTWSGQYVGGADAKINTQWLLTSGTTNANAWKSTLVGHDTFTKVKPSAAS
With B5, in series [2], the “Association rate constant ka” value is recorded as 5.99 × 10^5 M^−1 S^−1, the “Dissociation rate constant kd” value is reported as 1.58 × 10^−4 S^−1 and the equilibrium dissociation constant (Kd) is 0.264 nM. Besides, the “thermal stability compared with native streptavidin” value in series [1] is “thermal stability equivalent to that of the native streptavidin”.

B6: mcSA224: mutant core streptavidin with Y22T, Y83A, R84K, E101D, R103K, E116Q (protein)
core streptavidin subunit: AEAGITGTWTNQLGSTFIVTAGADGALTGTYESAVGNAESRYVLTGRYDSAPATDGSGTALGWTVAWKNNAKNAHSATTWSGQYVGGADAKINTQWLLTSGTTQANAWKSTLVGHDTFTKVKPSAAS
B6: in series [2], the “Association rate constant ka” value is 2.11 × 10^5 M^−1 S^−1, the “Dissociation rate constant kd” value was 1.01 × 10^−4 S^−1 and the Kd worked out at 0.481 nM.

B7: mcSA010: mutant core streptavidin with Y83A, R84K, E116N (protein)
core streptavidin subunit: AEAGITGTWYNQLGSTFIVTAGADGALTGTYESAVGNAESRYVLTGRYDSAPATDGSGTALGWTVAWKNNAKNAHSATTWSGQYVGGAEARINTQWLLTSGTTNANAWKSTLVGHDTFTKVKPSAAS
B7: in series [2], the “Dissociation rate constant kd” value was 8.96 × 10^−5 S^−1 and the dissociation constant (Kd) came to 0.225 nM.

B8: mcSA114: mutant core streptavidin with Y22S, Y83A, R84K, E101D, R103K, E116N (protein)
core streptavidin subunit: AEAGITGTWSNQLGSTFIVTAGADGALTGTYESAVGNAESRYVLTGRYDSAPATDGSGTALGWTVAWKNNAKNAHSATTWSGQYVGGADAKINTQWLLTSGTTNANAWKSTLVGHDTFTKVKPSAAS
Take B8: in series [2], the “Association rate constant ka” value is on record as 3.61 × 10^5 M^−1 S^−1, the “Dissociation rate constant kd” value is listed as 9.92 × 10^−5 S^−1 and the Kd was 0.274 nM.

B9: mcSA424: mutant core streptavidin with Y22T, Y83S, R84K, E101D, R103K, E116Q (protein)
core streptavidin subunit: AEAGITGTWTNQLGSTFIVTAGADGALTGTYESAVGNAESRYVLTGRYDSAPATDGSGTALGWTVAWKNNSKNAHSATTWSGQYVGGADAKINTQWLLTSGTTQANAWKSTLVGHDTFTKVKPSAAS
Take B9: in series [2], the “Association rate constant ka” value is 1.32 × 10^5 M^−1 S^−1, the “Dissociation rate constant kd” value is on record as 1.12 × 10^−4 S^−1 and the dissociation constant Kd turned out to be 0.845 nM.

B10: mcSA030: mutant core streptavidin with Y83S, R84K, E116N (protein)
core streptavidin subunit: AEAGITGTWYNQLGSTFIVTAGADGALTGTYESAVGNAESRYVLTGRYDSAPATDGSGTALGWTVAWKNNSKNAHSATTWSGQYVGGAEARINTQWLLTSGTTNANAWKSTLVGHDTFTKVKPSAAS
Take B10: in series [2], the “Dissociation rate constant kd” value is recorded as 1.55 × 10^−4 S^−1 and the dissociation constant Kd was determined as 0.399 nM.

B11: mcSA020: mutant core streptavidin with Y83A, R84K, E116Q (protein)
core streptavidin subunit: AEAGITGTWYNQLGSTFIVTAGADGALTGTYESAVGNAESRYVLTGRYDSAPATDGSGTALGWTVAWKNNAKNAHSATTWSGQYVGGAEARINTQWLLTSGTTQANAWKSTLVGHDTFTKVKPSAAS
With B11, in series [2], the “Dissociation rate constant kd” value is reported as 1.60 × 10^−4 S^−1 and the Kd was found to be 0.427 nM.

B12: mcSA124: mutant core streptavidin with Y22T, Y83A, R84K, E101D, R103K, E116N (protein)
core streptavidin subunit: AEAGITGTWTNQLGSTFIVTAGADGALTGTYESAVGNAESRYVLTGRYDSAPATDGSGTALGWTVAWKNNAKNAHSATTWSGQYVGGADAKINTQWLLTSGTTNANAWKSTLVGHDTFTKVKPSAAS
As to B12, in series [2], the “Association rate constant ka” value is listed as 3.06 × 10^5 M^−1 S^−1, the “Dissociation rate constant kd” value is 5.38 × 10^−5 S^−1 and the equilibrium dissociation constant (Kd) is 0.176 nM.
